Test results from patent US6960559 (UNIVERSITY OF ZURICH, dated 2005).
The star is where a group is joined. Cbz = O=C(OCc1ccccc1)*

B1: AFY-NH2 (peptide)
peptide: H-Ala-Phe-Tyr-NH2
B2: carbobenzoxy-tyrosine-tyrosine (peptide)
peptide: Cbz-Tyr-Tyr-OH
SMILES: O=C(N[C@@H](Cc1ccc(O)cc1)C(=O)N[C@@H](Cc1ccc(O)cc1)C(=O)O)OCc1ccccc1
B3: Carbobenzoxy-Gly-Phe-Phe-amide (peptide)
peptide: Cbz-Gly-Phe-Phe-NH2
SMILES: NC(=O)[C@H](Cc1ccccc1)NC(=O)[C@H](Cc1ccccc1)NC(=O)CNC(=O)OCc1ccccc1
B4: cbz-AFY-NH2 (peptide)
peptide: Cbz-Ala-Phe-Tyr-NH2
SMILES: C[C@H](NC(=O)OCc1ccccc1)C(=O)N[C@@H](Cc1ccccc1)C(=O)N[C@@H](Cc1ccc(O)cc1)C(N)=O
B5: cbz-GFF-OCH3 (peptide)
peptide: Cbz-Gly-Phe-Phe-OMe
SMILES: COC(=O)[C@H](Cc1ccccc1)NC(=O)[C@H](Cc1ccccc1)NC(=O)CNC(=O)OCc1ccccc1
B6: carbobenzoxy-Phe-Ala-Phe-Tyr-amide (peptide)
peptide: Cbz-FAFY-NH2
SMILES: C[C@H](NC(=O)[C@H](Cc1ccccc1)NC(=O)OCc1ccccc1)C(=O)N[C@@H](Cc1ccccc1)C(=O)N[C@@H](Cc1ccc(O)cc1)C(N)=O
B7: cbz-GLF-NH2 (peptide)
peptide: Cbz-Gly-Leu-Phe-NH2
SMILES: CC(C)C[C@H](NC(=O)CNC(=O)OCc1ccccc1)C(=O)N[C@@H](Cc1ccccc1)C(N)=O
B8: cbz-GFF (peptide)
peptide: Cbz-Gly-Phe-Phe-OH
SMILES: O=C(CNC(=O)OCc1ccccc1)N[C@@H](Cc1ccccc1)C(=O)N[C@@H](Cc1ccccc1)C(=O)O
B9: cbz-FA-NH2 (peptide)
peptide: Cbz-Phe-Ala-NH2
SMILES: C[C@H](NC(=O)[C@H](Cc1ccccc1)NC(=O)OCc1ccccc1)C(N)=O
B10: cbz-AF-NH2 (peptide)
peptide: Cbz-Ala-Phe-NH2
SMILES: C[C@H](NC(=O)OCc1ccccc1)C(=O)N[C@@H](Cc1ccccc1)C(N)=O
B11: carbobenzoxy-Gly-Phe-amide (peptide)
peptide: Cbz-Gly-Phe-NH2
SMILES: NC(=O)[C@H](Cc1ccccc1)NC(=O)CNC(=O)OCc1ccccc1
B12: FAFY-NH2 (peptide)
peptide: H-FAFY-NH2

Key:
[1] = target: T1, C6 plasma membrane associated metalloendoprotease (rat C6 glioblastoma cells) (rat); assay: cell-based or functional assay
[2] = target: T1, C6 plasma membrane associated …; assay: cell-based or functional assay; remark: listed apart in the source

Binder	IC50 on CNS myelin [µM], half maximal inhibition of C6 cell spreading [1] [µM]	IC50 of C6 cell spreading on CNS myelin [2] [µM]
B1	1000	
B2	300	
B3	8	
B4	20	
B5		5
B6	3	
B7		5
B8	300	
B9	600	
B10	600	
B11	600	
B12	300	
